T1: full length human CTLA-4 on cells (human, UniProt P16410 36-223)
T1 construct: whole, on cells; also called CTLA-4-expressing cell line
T1 sequence (looked up): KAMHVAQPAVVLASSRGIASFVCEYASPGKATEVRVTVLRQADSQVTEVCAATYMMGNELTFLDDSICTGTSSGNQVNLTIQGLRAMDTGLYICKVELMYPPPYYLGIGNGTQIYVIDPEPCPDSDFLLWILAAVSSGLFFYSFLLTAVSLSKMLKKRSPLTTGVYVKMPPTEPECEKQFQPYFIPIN

T2: hCTLA4_ECD.His point mutant T88 to alanine (human, UniProt P16410 36-161)
T2 construct: extracellular domain; alanine-scan mutein, HEK293F supernatant
T2 sequence (looked up): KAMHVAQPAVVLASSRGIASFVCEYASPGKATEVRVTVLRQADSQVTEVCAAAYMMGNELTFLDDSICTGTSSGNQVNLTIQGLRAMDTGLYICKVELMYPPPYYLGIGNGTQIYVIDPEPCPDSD

T3: hCTLA4_ECD.His point mutant R75 to alanine (human, UniProt P16410 36-161)
T3 construct: extracellular domain; alanine-scan mutein, HEK293F supernatant
T3 sequence (looked up): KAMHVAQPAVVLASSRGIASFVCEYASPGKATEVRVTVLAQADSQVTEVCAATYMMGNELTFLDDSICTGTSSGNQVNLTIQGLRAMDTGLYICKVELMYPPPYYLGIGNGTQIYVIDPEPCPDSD

T4: hCTLA4_ECD.His point mutant Y60 to alanine (human, UniProt P16410 36-161)
T4 construct: extracellular domain; alanine-scan mutein, HEK293F supernatant
T4 sequence (looked up): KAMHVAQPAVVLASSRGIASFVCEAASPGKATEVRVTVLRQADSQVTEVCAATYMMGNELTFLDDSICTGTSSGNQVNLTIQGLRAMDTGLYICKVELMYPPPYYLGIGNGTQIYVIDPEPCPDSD

T5: hCTLA4_ECD.His point mutant P136 to alanine (human, UniProt P16410 36-161)
T5 construct: extracellular domain; alanine-scan mutein, HEK293F supernatant
T5 sequence (looked up): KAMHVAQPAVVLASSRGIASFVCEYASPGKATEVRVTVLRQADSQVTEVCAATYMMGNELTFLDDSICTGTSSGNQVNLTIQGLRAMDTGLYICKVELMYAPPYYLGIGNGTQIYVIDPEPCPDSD

T6: hCTLA4_ECD.His point mutant V71 to alanine (human, UniProt P16410 36-161)
T6 construct: extracellular domain; alanine-scan mutein, HEK293F supernatant
T6 sequence (looked up): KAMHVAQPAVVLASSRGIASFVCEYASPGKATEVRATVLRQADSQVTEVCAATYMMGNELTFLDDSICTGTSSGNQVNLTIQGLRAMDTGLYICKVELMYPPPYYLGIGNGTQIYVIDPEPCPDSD

T7: hCTLA4_ECD.His point mutant V40 to alanine (human, UniProt P16410 36-161)
T7 construct: extracellular domain; alanine-scan mutein, HEK293F supernatant
T7 sequence (looked up): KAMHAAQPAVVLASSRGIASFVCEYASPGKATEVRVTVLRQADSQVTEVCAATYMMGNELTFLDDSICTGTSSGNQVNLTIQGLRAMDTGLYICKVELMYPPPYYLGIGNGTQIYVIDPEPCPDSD

T8: hCTLA4_ECD.His point mutant V84 to alanine (human, UniProt P16410 36-161)
T8 construct: extracellular domain; alanine-scan mutein, HEK293F supernatant
T8 sequence (looked up): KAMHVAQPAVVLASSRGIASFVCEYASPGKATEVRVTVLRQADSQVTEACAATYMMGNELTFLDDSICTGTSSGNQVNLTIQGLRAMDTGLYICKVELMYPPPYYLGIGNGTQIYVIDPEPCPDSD

T9: hCTLA4_ECD.His point mutant R70 to alanine (human, UniProt P16410 36-161)
T9 construct: extracellular domain; alanine-scan mutein, HEK293F supernatant
T9 sequence (looked up): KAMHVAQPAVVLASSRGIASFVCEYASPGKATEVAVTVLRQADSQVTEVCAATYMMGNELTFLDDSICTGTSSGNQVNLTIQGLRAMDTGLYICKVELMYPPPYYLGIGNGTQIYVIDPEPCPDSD

T10: hCTLA4_ECD.His point mutant A66 to glycine (human, UniProt P16410 36-161)
T10 construct: extracellular domain; alanine-scan mutein (alanine residues were mutated to glycine), HEK293F supernatant
T10 sequence (looked up): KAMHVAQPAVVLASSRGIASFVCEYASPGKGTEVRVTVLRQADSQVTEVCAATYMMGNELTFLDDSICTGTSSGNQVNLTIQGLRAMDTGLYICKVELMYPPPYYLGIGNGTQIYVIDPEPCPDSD

T11: hCTLA4_ECD.His point mutant M38 to alanine (human, UniProt P16410 36-161)
T11 construct: extracellular domain; alanine-scan mutein, HEK293F supernatant
T11 sequence (looked up): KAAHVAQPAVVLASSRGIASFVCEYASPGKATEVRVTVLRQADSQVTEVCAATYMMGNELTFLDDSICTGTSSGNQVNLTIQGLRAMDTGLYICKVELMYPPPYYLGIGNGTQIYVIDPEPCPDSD


Experiments:
[1] = molecular target: T1, full length human CTLA-4 on cells; test: FACS on human CTLA4 expression 293F cell line
Method: A number of 1×10⁵ cells per well was added to each well of a 96-well plate and centrifuged at 1500 rpm for 4 minutes at 4° C. before removing the supernatant. Serial dilutions of test antibodies, positive and negative controls were added to the resuspended cells and incubated for 1 hour at 4° C. The cells were washed two times with 200 μL DPBS containing 1% BSA. PE conjugated goat anti-human IgG (1:100) diluted in DPBS containing 1% BSA was added to the cells and incubated at 4° C. for 1 hour. Additional washing steps were performed two times with 200 μL DPBS containing 1% BSA followed by centrifugation at 1500 rpm for 4 minutes at 4° C. Finally, the cells were resuspended in 100 μL DPBS containing 1% BSA and fluorescence values were measured by flow cytometry and analyzed by FlowJo.

[2] = molecular target: T2, hCTLA4_ECD.His point mutant T88 to …; test: capture ELISA, alanine scan, vs silent alanine substitutions
Method: (§1) In order to test how the mutations affect antibody-binding, a capture ELISA was conducted. […] After interacting with the supernatant that contains quantified CTLA4 muteins, HRP conjugated anti-His antibody (1:5000; Rockland Immunochemicals, Pottstown, Pa.) was added as detection antibody. TMB was used as substance of HRP. Absorbance was normalized according to the average of control mutants. After setting an additional cutoff to the binding fold change (<0.55), the final determined epitope residues were identified.

[3] = molecular target: T3, hCTLA4_ECD.His point mutant R75 to …; test: as above
Method: as §1

[4] = molecular target: T4, hCTLA4_ECD.His point mutant Y60 to …; test: as above
Method: as §1

[5] = molecular target: T5, hCTLA4_ECD.His point mutant P136 to …; test: as above
Method: as §1

[6] = molecular target: T6, hCTLA4_ECD.His point mutant V71 to …; test: as above
Method: as §1

[7] = molecular target: T7, hCTLA4_ECD.His point mutant V40 to …; test: as above
Method: as §1

[8] = molecular target: T8, hCTLA4_ECD.His point mutant V84 to …; test: as above
Method: as §1

[9] = molecular target: T9, hCTLA4_ECD.His point mutant R70 to …; test: as above
Method: as §1

[10] = molecular target: T10, hCTLA4_ECD.His point mutant A66 to …; test: as above
Method: as §1

[11] = molecular target: T11, hCTLA4_ECD.His point mutant M38 to …; test: as above
Method: as §1

| EC50 [1] | Fold change [2] | Fold change [3] | Fold change [4] | Fold change [5] | Fold change [6] | Fold change [7] | Fold change [8] | Fold change [9] | Fold change [10] | Fold change [11] | Binder |
| --- | --- | --- | --- | --- | --- | --- | --- | --- | --- | --- | --- |
| 0.66 nM | 0.433 fold | 0.298 fold | 0.24 fold | 0.155 fold | 0.347 fold | 0.187 fold | 0.232 fold | 0.515 fold | 0.519 fold | 0.238 fold | W3162_1.154.8-z35-uAb.IgG1K (antibody, V domains shown, Humanized; label says IgG1K) VH: QVQLVQSGAEVKKPGSSVKVSCKASGYTFTNYFMNWVRQAPGQGLEWMGRVDPEQGRADYAEKFKKRVTITADKSTSTAYMELSSLRSEDTAVYYCARRAMDNYGFAYWGQGTLVTVSS VL: EIVLTQSPDFQSVTPKEKVTITCSANSALSYMYWYQQKPDQSPKLWVHGTSNLASGVPSRFSGSGSGTDFTLTINSLEAEDAATYYCHHWSNTQWTFGGGTKVEIK |
| 1.58 nM | 0.423 fold | 0.278 fold | 0.223 fold | 0.231 fold | 0.343 fold | 0.181 fold | 0.201 fold | 0.507 fold | 0.395 fold | 0.182 fold | W3162-1.146.19-z12-uAb.IgG1K (antibody, V domains shown, Humanized; label says IgG1K) VH: QVQLQESGPGLVKPSETLSLTCSVTYHTITSGYDWTWIRKPPGKGMEWIGYISYSGNTNYNPSLKSRVTISRDTSKNQFFLKLSSVTAADTAVYYCASMMVPHYYVMDAWGQGTLVTVSS VL: DIVMTQTPLSLSVTPGQPASISCRSSQSLLNSDGNTYLYWYLQKPGQSPQLLIYLVSKLGSGVPNRFSGSGSGTDFTLKISRVEAEDVGVYYCVQGTHDPWTFGGGTKVEIK |

Reference: patent US20200277377A1 (WUXI BIOLOGICS SHANGHAI, published 2020)
